# Experimental data published in PMC12034804.
# B1: recombinant human Siglec-10 Fc chimera (Fc fusion)
# chain: MDGRFWIRVQESVMVPEGLCISVPCSFSYPRQDWTGSTPAYGYWFKAVTETTKGAPVATNHQSREVEMSTRGRFQLTGDPAKGNCSLVIRDAQMQDESQYFFRVERGSYVRYNFMNDGFFLKVTALTQKPDVYIPETLEPGQPVTVICVFNWAFEECPPPSFSWTGAALSSQGTKPTTSHFSVLSFTPRPQDHNTDLTCHVDFSRKGVSAQRTVRLRVAYAPRDLVISISRDNTPALEPQPQGNVPYLEAQKGQFLRLLCAADSQPPATLSWVLQNRVLSSSHPWGPRPLGLELPGVKAGDSGRYTCRAENRLGSQQRALDLSVQYPPENLRVMVSQANRTVLENLGNGTSLPVLEGQSLCLVCVTHSSPPARLSWTQRGQVLSPSQPSDPGVLELPRVQVEHEGEFTCHARHPLGSQHVSLSLSVHYSPKLLGPSCSWEAEGLHCSCSSQASPAPSLRWWLGEELLEGNSSQDSFEVTPSSAGPWANSSLSLHGGLSSGLRLRCEAWNVHGAQSGSILQLPDKKGLISTAFSN
# Tests used:
# [1] = target: enhanced green fluorescent protein (eGFP) [GFP: P42212]; test: BLI; ForteBio sensors loaded with 20 nM solutions, baseline in PBS with 1 mg/ml BSA, single concentration of analyte, 1000 rpm, 1:1 binding model, Kd from kd : ka; the section's heading calls it isothermal titration calorimetry; who was on the sensor is not told
# [2] = target: eGFP-CD24 (CD24 fused with eGFP at the N-terminus), on CHO-CD24 cells (UniProt P25063)
# [3] = target: de-N-glycosylated eGFP-CD24, on CHO-CD24 cells treated with nbGFP-PNGF (UniProt P25063); test: flow cytometry on cells; CHO-CD24 cells incubated with 5 nM PNGF or nbGFP-PNGF for 2 hours, with or without 50 µM P-3Fax-Neu5Ac; bound enzyme dissociated in acidic buffer (100 mM Glycine, 150 mM NaCl, pH 3.0, 0.1% Tween-20) for 2 min; then human Siglec-10 Fc chimera, biotin anti-human IgG Fc, Cy5-streptavidin
# [4] = target: eGFP-CD24 (CD24 fused with eGFP at the N-terminus), on CHO-CD24 cells (UniProt P25063); remark: listed apart in the source
Molecule,Kd [1],"de-N-glycosylation of eGFP-CD24 on CHO cells (western blot, 2 h): concentration at which it is complete; 500 nM PNGF without the nanobody could not [2]",percent of the CD24/Siglec-10 interaction that is due to the N-glycans (lost on de-N-glycosylation) [3],"phagocytosis of CHO-CD24 cells by mouse bone marrow-derived macrophages after treatment with nbGFP-PNGF, against control (flow cytometry) [4]"
nbGFP-PNGF (Peptide-N-glycosidase F fused to an N-terminal nanobody against eGFP),5.58 nM,5 nM,–,–
B1,–,–,> 82%,0.5 fold
